Results from patent US20150330991A1 (GWANGJU INSTITUTE OF SCIENCE AND TECHNOLOGY, published 2015).

Assays:
[1] = target: T1, streptavidin (UniProt P22629 37-163, limits assumed); experiment: SPR (BIAcore X), streptavidin immobilised on CM5 chip, synthetic peptide as analyte
T1 construct: Immobilised on a CM5 chip (2000 RU) for SPR; coated on plates for ELISA; also called streptavidin protein
Experimental: (§1) A streptavidin-binding peptide optimized peptide and an existing peptide were synthesized (Anygen). The affinity measurement was conducted using BIAcore X (Biacore AB, Uppsala, Sweden). Here, 2000 RU of streptavidin was allowed to flow on the CM5 chip (Biacore) for immobilization. PBS (pH 7.4) was used as a running buffer, and the kinetics at different concentrations was measured under a flow rate of 30 μl per minute. The affinity was calculated using BlAevaluation software (Biacore AB, Uppsala, Sweden).
(§2) Optimized peptide Strep_opti1 and control peptide […] were synthesized, and affinities thereof were measured using the SPR Biacore system.

[2] = target: T2, BSA (bovine, UniProt P02769); experiment: phage ELISA, wells coated with 5 µg/ml protein, anti-M13-HRP, absorbance at 450 nm
T2 construct: not further described; off-target control protein of the specificity ELISA
Experimental: In order to investigate specificities to streptavidin, of peptides (Strep_opti1 and Strep_opti2) obtained through sequencing, recombinant phages expressing these peptides were used to investigate specificities to streptavidin, BSA, ovalbumin, and VEGF. First, 5 μg/ml streptavidin, BSA, ovalbumin, and VEGF were put in a 96-well ELISA plate (50 μl per well), and then allowed to stand at 4° C. overnight. Next day, all the wells were washed three times with 0.1% PBST, and blocked at room temperature for 2 hrs using 2% BSA diluted with PBS. Then, the solution was discarded, followed by washing with 0.1% PBST three times. 800 μl of recombinant phages of each of Strep_opti1 and Strep_opti2 and 200 μl of 10% BSA were added thereto, and each 100 μl was dispensed into streptavidin, BSA, ovalbumin, and VEGF wells, followed by standing at 27° C. for 1 hr. After washing five times with 0.1% PBST solution, the HRP-conjugated anti-M13 antibody (GE Healthcare) was diluted to 1:1,000, and then the reaction was performed at 27° C. for 1 hr. After washing five times with 0.1% PBST, 100 μl of the TMB solution was dispensed into each well to induce a colorimetric reaction, and then the reaction was stopped by adding 100 μl of 1 M HCl. The absorbance was measured at 450 nm.

[3] = target: T1, streptavidin; experiment: SPR (BIAcore X), ratio of KD values
Experimental: as §1, §2

[4] = target: T3, fibronectin extra domain B (ED-B) (UniProt P02751 1266-1356, biotinylated (biotin ED-B), site not stated); experiment: SPR (Biacore X), biotin-EDB on a streptavidin SA chip
T3 construct: domain: ED-B; Biotin-EDB captured on a streptavidin SA chip (2,000 RU) for SPR and on streptavidin-coated wells for ELISA; also called biotin ED-B; biotin-EDB
Experimental: (§3) The bipodal peptide binder found from BPB2EDB, BPB3EDB, and BPB4EDB maturation libraries were synthesized (Anygen, Korea). The affinity measurement was conducted using BIAcore X (Biacore AB, Uppsala, Sweden). 2,000 RU of biotin-EDB was allowed to flow on the streptavidin SA chip (Biacore) for immobilization. PBS (pH 7.4) was used as a running buffer, and kinetics at different concentrations was measured under a flow rate of 30 μl per minute. The affinity was calculated using BlAevaluation software (Biacore AB, Uppsala, Sweden).

[5] = target: T3, fibronectin extra domain B (ED-B); experiment: SPR (BIAcore X), biotin-EDB on streptavidin SA chip, synthetic peptide as analyte; peptide 1
Experimental: as §3

[6] = target: T1, streptavidin; experiment: phage ELISA, wells coated with 5 µg/ml protein, anti-M13-HRP, absorbance at 450 nm
Experimental: In order to investigate specificities to streptavidin, of peptides (VEGFR1_opti1, VEGFR1_opti2, and VEGFR1_opti3) obtained through sequencing, recombinant phages expressing these peptides were used to investigate specificities to VEGFR1, VEGFR2, streptavidin, HSA, TNF, and VEGF. First, 5 μg/ml VEGFR1, VEGFR2, streptavidin, HSA, TNF, and VEGF were put in a 96-well ELISA plate (50 μl per well), and then allowed to stand at 4° C. overnight. The next day, all the wells were washed three times with 0.1% PBST, and blocked at room temperature for 2 hrs using 2% BSA diluted with PBS. Then, the whole solution was discarded, followed by washing three times with 0.1% PBST. 800 μl of recombinant phages of each of VEGFR1_opti1, VEGFR1_opti2, and VEGFR1_opti3 and 200 μl of 10% BSA were added thereto, and each 100 μl was dispensed into VEGFR1, VEGFR2, streptavidin, HSA, TNF, and VEGF wells, followed by standing at 27° C. for 1 hr. After washing five times with 0.1% PBST solution, the HRP-conjugated anti-M13 antibody (GE Healthcare) was diluted to 1:1,000, and then the reaction was performed at 27° C. for 1 hr. After washing with 0.1% PBST five times, 100 μl of the TMB solution was dispensed into each well to induce a colorimetric reaction, and then the reaction was stopped by adding 100 μl of 1 M HCl. The absorbance was measured at 450 nm.

[7] = target: T3, fibronectin extra domain B (ED-B); experiment: SPR (BIAcore X), biotin-EDB on streptavidin SA chip
[8] = target: T4, vascular endothelial growth factor receptor 1 (VEGFR1) (UniProt P17948 27-756, limits assumed); experiment: SPR (BIAcore X), from RU at 5 µM against the control's RU at 200 µM
T4 construct: Immobilised on a CM5 chip (7000 RU) for SPR; coated on plates for ELISA; also called VEGFR1 protein
Experimental: as §1, with “VEGFR1-binding” for “streptavidin-binding”, “7000” for “2000”, “VEGFR1” for “streptavidin”
Optimized peptide VEGFR1_opti1 and control peptide GNQWFI were synthesized, and affinities thereof were measured using the SPR Biacore system.

[9] = target: T3, fibronectin extra domain B (ED-B); experiment: SPR (BIAcore X), biotin-EDB on streptavidin SA chip, synthetic peptide as analyte; peptide 2
Experimental: as §3

T1 sequence (P22629 37-163 limits assumed): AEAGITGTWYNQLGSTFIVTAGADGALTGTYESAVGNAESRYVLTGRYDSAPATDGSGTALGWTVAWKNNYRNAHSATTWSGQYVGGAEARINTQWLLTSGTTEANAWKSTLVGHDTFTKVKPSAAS
T3 sequence (P02751 1266-1356 limits assumed): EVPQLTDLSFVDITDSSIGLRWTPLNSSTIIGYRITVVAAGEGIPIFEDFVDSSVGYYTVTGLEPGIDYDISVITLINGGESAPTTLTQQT
T2 sequence (P02769 25-607 limits assumed): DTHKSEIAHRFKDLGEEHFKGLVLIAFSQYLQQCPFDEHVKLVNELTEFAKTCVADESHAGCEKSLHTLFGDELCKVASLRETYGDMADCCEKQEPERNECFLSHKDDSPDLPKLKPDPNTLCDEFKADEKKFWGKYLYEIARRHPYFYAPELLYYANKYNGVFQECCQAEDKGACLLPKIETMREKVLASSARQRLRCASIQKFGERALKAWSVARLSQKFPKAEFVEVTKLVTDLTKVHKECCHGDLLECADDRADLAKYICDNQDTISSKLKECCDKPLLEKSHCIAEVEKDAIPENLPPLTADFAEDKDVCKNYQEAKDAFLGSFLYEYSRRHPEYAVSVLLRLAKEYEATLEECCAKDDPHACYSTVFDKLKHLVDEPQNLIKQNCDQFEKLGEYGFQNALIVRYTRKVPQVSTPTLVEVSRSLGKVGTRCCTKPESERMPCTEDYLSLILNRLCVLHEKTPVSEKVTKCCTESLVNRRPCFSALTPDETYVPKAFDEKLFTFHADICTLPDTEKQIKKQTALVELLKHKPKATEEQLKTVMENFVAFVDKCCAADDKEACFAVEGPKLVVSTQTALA
T4 sequence (P17948 27-756 limits assumed): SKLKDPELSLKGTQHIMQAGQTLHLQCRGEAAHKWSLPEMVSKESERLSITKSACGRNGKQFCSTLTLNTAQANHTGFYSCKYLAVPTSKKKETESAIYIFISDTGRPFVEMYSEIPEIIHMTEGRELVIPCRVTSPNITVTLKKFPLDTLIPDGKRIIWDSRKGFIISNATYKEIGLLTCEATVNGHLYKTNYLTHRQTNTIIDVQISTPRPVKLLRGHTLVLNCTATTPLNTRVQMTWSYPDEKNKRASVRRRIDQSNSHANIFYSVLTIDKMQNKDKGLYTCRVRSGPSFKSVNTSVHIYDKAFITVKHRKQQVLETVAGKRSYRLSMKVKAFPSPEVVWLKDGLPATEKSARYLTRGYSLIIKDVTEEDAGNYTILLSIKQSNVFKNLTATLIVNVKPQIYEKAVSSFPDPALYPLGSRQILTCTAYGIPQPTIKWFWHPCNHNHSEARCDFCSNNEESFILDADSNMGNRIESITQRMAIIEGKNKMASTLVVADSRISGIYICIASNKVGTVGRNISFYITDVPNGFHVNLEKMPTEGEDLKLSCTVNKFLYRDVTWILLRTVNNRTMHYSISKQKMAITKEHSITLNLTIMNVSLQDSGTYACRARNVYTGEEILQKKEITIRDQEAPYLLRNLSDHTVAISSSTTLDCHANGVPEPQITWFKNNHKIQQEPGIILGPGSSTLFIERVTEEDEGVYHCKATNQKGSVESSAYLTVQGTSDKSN

B1: Strep_opti1 (peptide)
peptide: WSHPQFEKGGGSWTWENGKWTWKGAHPQVR
notes: Synthetic peptide in SPR
- Kd [1]: 67 nM
- binding result [2]: no binding
- fold increase in affinity compared with control peptide WSHPQFEK [3]: 1220 fold

B2: peptide 1 (WGGPVRGSWTWENGKWTWKGIIRLEQ) (peptide)
peptide: WGGPVRGSWTWENGKWTWKGIIRLEQ
notes: Synthetic in SPR; on phage in the colony ELISA; also called BPB2 peptide 1
- koff [4]: 0.02 s⁻¹
- kon [4]: 250000 M⁻¹ s⁻¹
- Kd [5]: 115 nM

B3: VEGFR1_opti2 (peptide)
peptide: GNQWFIGGGSWTWENGKWTWKGKLQNPM
notes: also called KPI-BPB VEGFR1_opti2
- binding result [6]: no binding

B4: Strep_opti2 (peptide)
peptide: WSHPQFEKGGGSWTWENGKWTWKGTLIHPM
- binding result [2]: no binding

B5: peptide 3 (CSSPIQGSWTWENGKWTWKGIIRLEQ) (peptide)
peptide: CSSPIQGSWTWENGKWTWKGIIRLEQ
notes: also called BPB2EDB; BPB2
- Kd [7]: 16 nM
- koff [7]: 0.00051 s⁻¹
- kon [7]: 30000 M⁻¹ s⁻¹

B6: VEGFR1_opti1 (peptide)
peptide: GNQWFIGGGSWTWENGKWTWKGRIPKNR
notes: Synthetic peptide in SPR; also called optimized peptide VEGFR1_opti1; KPI-BPB VEGFR1_opti1
- binding result [6]: no binding
- fold increase in affinity compared with the control peptide [8]: ~360 fold

B7: peptide 2 (ADGRVRGSWTWENGKWTWKGIIRLEQ) (peptide)
peptide: ADGRVRGSWTWENGKWTWKGIIRLEQ
notes: Synthetic in SPR; on phage in the colony ELISA; also called BPB2 peptide 2
- Kd [9]: 35 nM
- koff [4]: 0.01 s⁻¹
- kon [4]: 370000 M⁻¹ s⁻¹

B8: VEGFR1_opti3 (peptide)
peptide: GNQWFIGGGSWTWENGKWTWKGQQAIQP
notes: also called KPI-BPB VEGFR1_opti3
- binding result [6]: no binding

B9: streptavidin-binding peptide WSHPQFEK (peptide)
peptide: WSHPQFEK
notes: Synthetic control peptide in SPR; also called known peptide
- Kd [1]: 82000 nM
